Like-named read-outs stand apart in the source and are kept apart here.
How the values were obtained:
[1] = biological target: Human epidermal growth factor receptor (EGFR) (human) (UniProt P00533); assay: flow cytometry saturation binding on MDA-MB-468 cells
[2] = biological target: Human epidermal growth factor receptor (EGFR) (human) (UniProt P00533); assay: flow cytometry on MDA-MB-468 cells
[3] = biological target: Human epidermal growth factor receptor (EGFR) (human) (UniProt P00533); assay: immunoreactive fraction (Lindmo) assay on MDA-MB-468 cells
[4] = biological target: Human epidermal growth factor receptor (EGFR) (human) (UniProt P00533); assay: saturation radioligand binding assay on MDA-MB-468 cells
[5] = biological target: Human epidermal growth factor receptor (EGFR) (human) (UniProt P00533); assay: competitive radioligand binding on MDA-MB-468 cells pre-blocked with 100-fold excess of unlabeled 8709-scFv-Fc; ^225Ac-8709-scFv-Fc at 50 nM
[6] = biological target: Human epidermal growth factor receptor (EGFR) (human) (UniProt P00533); assay: flow cytometry on MDA-MB-468 cells; remark: listed apart in the source

Row | Binder | Kd [1] [nM] | % binding [2] [%] | immunoreactive fraction [3] | Kd [4] [nM] | fold reduction in the binding of ^225Ac-8709-scFv-Fc to EGFR [5] [fold] | % binding [6] [%] | fold higher KD as compared to 8709-scFv-Fc [1] [fold]
1 | ^225Ac-8709-scFv-Fc (scFv, part only; not given: scFv linker, hinge and Fc, V domains shown, not shown: another chain or arm of the molecule; a dimerising Fc or GST; small tags and cut ends, Macropa chelator (coupled via macropa-NCS) carrying ^225Ac; attachment sites not stated.) VH: EVQLVESGGGLVQPGGSLRLSCAASGFNLYSSSMHWVRQAPGKGLEWVASIYPYSGYTYYADSVKGRFTISADTSKNTAYLQMNSLRAEDTAVYYCARYPFGVSAYYAMDYWGQGTLVTVSS VL: DIQMTQSPSSLSASVGDRVTITCRASQSVSSAVAWYQQKPGKAPKLLIYSASSLYSGVPSRFSGSRSGTDFTLTISSLQPEDFATYYCQQSYWLITFGQGTKVEIK | – | – | 0.86 | 14.5 | – | – | –
2 | Macropa-8709-scFv-Fc (scFv, part only; not given: scFv linker, hinge and Fc, V domains shown, not shown: another chain or arm of the molecule; a dimerising Fc or GST; small tags and cut ends, Macropa chelator coupled via macropa-NCS, not radiolabeled; attachment sites not stated.) VH: EVQLVESGGGLVQPGGSLRLSCAASGFNLYSSSMHWVRQAPGKGLEWVASIYPYSGYTYYADSVKGRFTISADTSKNTAYLQMNSLRAEDTAVYYCARYPFGVSAYYAMDYWGQGTLVTVSS VL: DIQMTQSPSSLSASVGDRVTITCRASQSVSSAVAWYQQKPGKAPKLLIYSASSLYSGVPSRFSGSRSGTDFTLTISSLQPEDFATYYCQQSYWLITFGQGTKVEIK | 11.3 | > 90 | – | – | – | > 85 | 10.4

Now from value to binder:

Row | Kd [1] [nM] | % binding [2] [%] | immunoreactive fraction [3] | Kd [4] [nM] | fold reduction in the binding of ^225Ac-8709-scFv-Fc to EGFR [5] [fold] | % binding [6] [%] | fold higher KD as compared to 8709-scFv-Fc [1] [fold] | Binder
3 | 4.2 | > 90 | – | – | – | – | – | 8709-scFv-Fc-PEG6-DM1 (scFv, part only; not given: scFv linker, hinge and Fc, V domains shown, not shown: another chain or arm of the molecule; a dimerising Fc or GST; small tags and cut ends, PEG6-DM1 coupled via DM1-PEG6-NHS, drug to antibody ratio 3.5; attachment sites not stated.) VH: EVQLVESGGGLVQPGGSLRLSCAASGFNLYSSSMHWVRQAPGKGLEWVASIYPYSGYTYYADSVKGRFTISADTSKNTAYLQMNSLRAEDTAVYYCARYPFGVSAYYAMDYWGQGTLVTVSS VL: DIQMTQSPSSLSASVGDRVTITCRASQSVSSAVAWYQQKPGKAPKLLIYSASSLYSGVPSRFSGSRSGTDFTLTISSLQPEDFATYYCQQSYWLITFGQGTKVEIK
4 | 1.1 | > 90 | – | – | 23.2 | – | – | 8709-scFv-Fc (scFv, part only; not given: scFv linker, hinge and Fc, V domains shown, not shown: another chain or arm of the molecule; a dimerising Fc or GST; small tags and cut ends) VH: EVQLVESGGGLVQPGGSLRLSCAASGFNLYSSSMHWVRQAPGKGLEWVASIYPYSGYTYYADSVKGRFTISADTSKNTAYLQMNSLRAEDTAVYYCARYPFGVSAYYAMDYWGQGTLVTVSS VL: DIQMTQSPSSLSASVGDRVTITCRASQSVSSAVAWYQQKPGKAPKLLIYSASSLYSGVPSRFSGSRSGTDFTLTISSLQPEDFATYYCQQSYWLITFGQGTKVEIK

From patent US20210236667A1
